Experimental data from PMC10997057.

Experiments:
[1] = molecular target: synthetic AL amyloid fibrils composed of the recombinant λ6 light chain variable domain from patient (human); assay: co-sedimentation; pulldown as for WIL fibrils except that 1.0% bovine serum albumin was added; synthetic rVλ6WIL fibrils as substrate
[2] = molecular target: synthetic AL amyloid fibrils composed of the recombinant λ6 light chain variable domain from patient (human); assay: co-sedimentation; "pulldown" bioactivity assay as a1; batch product stored 3 h at RT post-synthesis
[3] = molecular target: synthetic AL amyloid fibrils composed of the recombinant λ6 light chain variable domain from patient (human); assay: co-sedimentation; "pulldown" bioactivity assay; batch product at 0 h post-synthesis; 25 ug fibrils in PBS with 0.05% tween 20, 20-40 ng radiolabeled product, 1 h at RT, centrifugation 10,000 x g 3 min, gamma counting of pellet and supernatant
[4] = molecular target: synthetic AL amyloid fibrils composed of the recombinant λ6 light chain variable domain from patient (human); assay: co-sedimentation; "pulldown" bioactivity assay as a1; batch product 6 h post-synthesis (some loss of ^99mTcO4^-1 from the peptide)
[5] = molecular target: synthetic AL amyloid fibrils composed of the recombinant λ6 light chain variable domain from patient (human); assay: co-sedimentation; "pulldown" bioactivity assay; product labelled from lyophilized "kit" preparations stored at -80°C for 7, 98 and 128 days
[6] = molecular target: murine splenic AA amyloid extract (mouse (endogenous in spleen)) (UniProt P05367); assay: co-sedimentation; pulldown with tissue amyloid extracts suspended in PBS at 1 mg/mL, homogenized; as for WIL fibrils except that 1.0% bovine serum albumin was added
[7] = molecular target: ATTRv amyloid extract (patient heart), variant not named (human (endogenous in patient heart)) (UniProt P02766); assay: as above
[8] = molecular target: ALκ amyloid extract (patient liver) (human (endogenous in patient liver)); assay: as above
[9] = molecular target: ALλ amyloid extract (patient spleen) (human (endogenous in patient spleen)); assay: as above

Chain of ^99mTc-labeled p5+14 peptide (peptide): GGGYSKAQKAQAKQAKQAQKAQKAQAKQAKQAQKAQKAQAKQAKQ
Chain of murine splenic AA amyloid extract (mouse (endogenous in spleen)) (P05367 20-122): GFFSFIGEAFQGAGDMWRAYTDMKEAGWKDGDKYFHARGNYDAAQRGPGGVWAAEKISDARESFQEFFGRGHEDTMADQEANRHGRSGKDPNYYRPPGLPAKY

## ^99mTc-labeled p5+14 peptide
[1]
  bound (%): 91.1%
[2]
  Bioactivity (bound %), 3 h post-synthesis: 92.9%
[3]
  Bioactivity (bound %), 0 h post-synthesis: 94%
[4]
  Bioactivity (bound %), 6 h post-synthesis: 72.2%
[5]
  bioactivity (% bound), kit at day 7: 76.8%
  bioactivity (% bound), kit at day 98: 75.1%
  bioactivity (% bound), kit at day 128: 75.2%
[6]
  bound (%): 67.8%
[7]
  bound (%): 79%
[8]
  bound (%): 93.3%
[9]
  bound (%): 88.1%
